Results as given in article PMC6135763 (Nature Communications, 2018).

T1: Importin α3ΔIBB (residues 64–521) (human, UniProt O00629 64-521)
T1 construct: also called Impα3; KPNA4
T1 sequence (looked up): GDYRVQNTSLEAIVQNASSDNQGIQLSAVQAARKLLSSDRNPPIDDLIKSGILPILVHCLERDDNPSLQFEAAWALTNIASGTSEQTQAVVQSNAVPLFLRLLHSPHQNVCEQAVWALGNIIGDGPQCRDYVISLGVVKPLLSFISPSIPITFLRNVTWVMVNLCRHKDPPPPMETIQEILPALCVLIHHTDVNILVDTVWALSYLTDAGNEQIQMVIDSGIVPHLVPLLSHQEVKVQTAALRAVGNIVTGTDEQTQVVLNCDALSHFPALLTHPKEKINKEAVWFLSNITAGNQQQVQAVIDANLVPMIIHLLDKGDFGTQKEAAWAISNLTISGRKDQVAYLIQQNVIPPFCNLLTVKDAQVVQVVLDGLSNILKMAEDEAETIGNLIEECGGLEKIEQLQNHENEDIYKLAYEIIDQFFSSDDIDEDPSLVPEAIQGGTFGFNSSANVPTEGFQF


Experiments:
[1] = target: T1, Importin α3ΔIBB (residues 64–521); assay: ELISA; details: both partners purified
[2] = target: Importin α7ΔIBB (residues 73–536) (human, UniProt O60684 73-536); assay: ELISA; details: both partners purified
Sequence of Importin α7ΔIBB (residues 73–536) (O60684 73-536, stated change not applied): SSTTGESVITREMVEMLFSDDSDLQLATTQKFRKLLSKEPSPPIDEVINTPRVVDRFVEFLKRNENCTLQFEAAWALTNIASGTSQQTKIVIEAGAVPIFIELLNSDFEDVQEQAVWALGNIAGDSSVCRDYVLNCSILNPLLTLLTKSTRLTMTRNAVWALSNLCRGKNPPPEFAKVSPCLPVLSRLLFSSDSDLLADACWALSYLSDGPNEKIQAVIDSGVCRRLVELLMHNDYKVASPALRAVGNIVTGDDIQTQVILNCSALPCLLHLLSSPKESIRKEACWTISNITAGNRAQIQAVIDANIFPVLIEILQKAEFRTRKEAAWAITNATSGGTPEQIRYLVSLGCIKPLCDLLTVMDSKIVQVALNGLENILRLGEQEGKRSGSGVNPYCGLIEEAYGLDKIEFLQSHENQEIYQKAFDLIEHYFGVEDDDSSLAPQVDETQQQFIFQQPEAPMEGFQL

Binder	Kd [1]	Kd [2]
RNIHLLGRKTCLGRRVVQPGMFEDHPPTKKARVSMRRMSN (domain or fragment) [GST-NiV W (C-terminal NLS domain of Nipah virus W protein, residues 411–450, GST fusion)]	14.4 nM	1100 nM
RSLNMLGRKTCLGRRVVQPGMFADYPPTKKARVLLRRMSN (domain or fragment) [GST-HeV W (C-terminal NLS domain of Hendra virus W protein, residues 409–448, GST fusion)]	19.9 nM	1500 nM
